For 8 molecules, Max effect and EC50 results are on record in US20250171562A1 (ALK ABELL, published 2025).

First the molecules themselves.
B1: CIgG4F6A1(G4S)1 (Fc fusion)
chain 1: GPPCPPCPAPEFLGGPSVFLFPPKPKDTLMISRTPEVTCVVVDVSQEDPEVQFNWYVDGVEVHNAKTKPREEQFNSTYRVVSVLTVLHQDWLNGKEYKCKVSNKGLPSSIEKTISKAKGQPREPQVYTLPPCQEEMTKNQVSLWCLVKGFYPSDIAVEWESNGQPENNYKTTPPVLDSDGSFFLYSRLTVDKSRWQEGNVFSCSVMHEALHNHYTQKSLSLSLGKGGGGSDVQLQESGGGLVQAGGSLRLSCAASGLTFGSYDMGWYRQAPGKQRELVGRIRNDGITYYADSVKGRFTMSRDNAKNTVYLQMNSLKPEDTAVYYCAADGTGLGHYDYWGQGTQVTVS
chain 2: GPPCPPCPAPEFLGGPSVFLFPPKPKDTLMISRTPEVTCVVVDVSQEDPEVQFNWYVDGVEVHNAKTKPREEQFNSTYRVVSVLTVLHQDWLNGKEYKCKVSNKGLPSSIEKTISKAKGQPREPQVCTLPPSQEEMTKNQVSLSCAVKGFYPSDIAVEWESNGQPENNYKTTPPVLDSDGSFFLVSRLTVDKSRWQEGNVFSCSVMHEALHNHYTQKSLSLSLGKGGGGSEVQLLESGGGLVQPGGSLRLSCAASGFTFGNYDMAWVRQAPGKRPEWVSSIDTGGDITHYADSVKGRFTISRDNAKNTLYLQMNSLRPEDTAVYWCATDEEYALGPNEFDYYGQGTLVTVSS
B2: CIgG4A1B1(G4S)1 (Fc fusion)
chain 1: GPPCPPCPAPEFLGGPSVFLFPPKPKDTLMISRTPEVTCVVVDVSQEDPEVQFNWYVDGVEVHNAKTKPREEQFNSTYRVVSVLTVLHQDWLNGKEYKCKVSNKGLPSSIEKTISKAKGQPREPQVCTLPPSQEEMTKNQVSLSCAVKGFYPSDIAVEWESNGQPENNYKTTPPVLDSDGSFFLVSRLTVDKSRWQEGNVFSCSVMHEALHNHYTQKSLSLSLGKGGGGSQVQLQESGGGLVQTGGSLRLSCAVHGRTFSNTGMGWFRQAPGNERQFVAIISPSGTSTYYADSVKGRFTISRDPAKNTVYLQMNSLKMDDTAVYYCAASYGSNWSTLRHQRRNEYDAWGQGTQVAVS
chain 2: B1 chain 2 with C127Y, S132C, S144W, A146L, V185Y
notes: B1 on the hole (437), A1 on the knob (106)
B3: CIgG4B1A1(G2S) (Fc fusion)
chain 1: GPPCPPCPAPEFLGGPSVFLFPPKPKDTLMISRTPEVTCVVVDVSQEDPEVQFNWYVDGVEVHNAKTKPREEQFNSTYRVVSVLTVLHQDWLNGKEYKCKVSNKGLPSSIEKTISKAKGQPREPQVYTLPPCQEEMTKNQVSLWCLVKGFYPSDIAVEWESNGQPENNYKTTPPVLDSDGSFFLYSRLTVDKSRWQEGNVFSCSVMHEALHNHYTQKSLSLSLGKGGSQVQLQESGGGLVQTGGSLRLSCAVHGRTFSNTGMGWFRQAPGNERQFVAIISPSGTSTYYADSVKGRFTISRDPAKNTVYLQMNSLKMDDTAVYYCAASYGSNWSTLRHQRRNEYDAWGQGTQVAVS
chain 2: GPPCPPCPAPEFLGGPSVFLFPPKPKDTLMISRTPEVTCVVVDVSQEDPEVQFNWYVDGVEVHNAKTKPREEQFNSTYRVVSVLTVLHQDWLNGKEYKCKVSNKGLPSSIEKTISKAKGQPREPQVCTLPPSQEEMTKNQVSLSCAVKGFYPSDIAVEWESNGQPENNYKTTPPVLDSDGSFFLVSRLTVDKSRWQEGNVFSCSVMHEALHNHYTQKSLSLSLGKGGSEVQLLESGGGLVQPGGSLRLSCAASGFTFGNYDMAWVRQAPGKRPEWVSSIDTGGDITHYADSVKGRFTISRDNAKNTLYLQMNSLRPEDTAVYWCATDEEYALGPNEFDYYGQGTLVTVSS
B4: CIgG4B1A1(GS) (Fc fusion)
chain 1: GPPCPPCPAPEFLGGPSVFLFPPKPKDTLMISRTPEVTCVVVDVSQEDPEVQFNWYVDGVEVHNAKTKPREEQFNSTYRVVSVLTVLHQDWLNGKEYKCKVSNKGLPSSIEKTISKAKGQPREPQVYTLPPCQEEMTKNQVSLWCLVKGFYPSDIAVEWESNGQPENNYKTTPPVLDSDGSFFLYSRLTVDKSRWQEGNVFSCSVMHEALHNHYTQKSLSLSLGKGSQVQLQESGGGLVQTGGSLRLSCAVHGRTFSNTGMGWFRQAPGNERQFVAIISPSGTSTYYADSVKGRFTISRDPAKNTVYLQMNSLKMDDTAVYYCAASYGSNWSTLRHQRRNEYDAWGQGTQVAVS
chain 2: GPPCPPCPAPEFLGGPSVFLFPPKPKDTLMISRTPEVTCVVVDVSQEDPEVQFNWYVDGVEVHNAKTKPREEQFNSTYRVVSVLTVLHQDWLNGKEYKCKVSNKGLPSSIEKTISKAKGQPREPQVCTLPPSQEEMTKNQVSLSCAVKGFYPSDIAVEWESNGQPENNYKTTPPVLDSDGSFFLVSRLTVDKSRWQEGNVFSCSVMHEALHNHYTQKSLSLSLGKGSEVQLLESGGGLVQPGGSLRLSCAASGFTFGNYDMAWVRQAPGKRPEWVSSIDTGGDITHYADSVKGRFTISRDNAKNTLYLQMNSLRPEDTAVYWCATDEEYALGPNEFDYYGQGTLVTVSS
B5: CIgG4B1A1(G3S) (Fc fusion)
chain 1: GPPCPPCPAPEFLGGPSVFLFPPKPKDTLMISRTPEVTCVVVDVSQEDPEVQFNWYVDGVEVHNAKTKPREEQFNSTYRVVSVLTVLHQDWLNGKEYKCKVSNKGLPSSIEKTISKAKGQPREPQVYTLPPCQEEMTKNQVSLWCLVKGFYPSDIAVEWESNGQPENNYKTTPPVLDSDGSFFLYSRLTVDKSRWQEGNVFSCSVMHEALHNHYTQKSLSLSLGKGGGSQVQLQESGGGLVQTGGSLRLSCAVHGRTFSNTGMGWFRQAPGNERQFVAIISPSGTSTYYADSVKGRFTISRDPAKNTVYLQMNSLKMDDTAVYYCAASYGSNWSTLRHQRRNEYDAWGQGTQVAVS
chain 2: GPPCPPCPAPEFLGGPSVFLFPPKPKDTLMISRTPEVTCVVVDVSQEDPEVQFNWYVDGVEVHNAKTKPREEQFNSTYRVVSVLTVLHQDWLNGKEYKCKVSNKGLPSSIEKTISKAKGQPREPQVCTLPPSQEEMTKNQVSLSCAVKGFYPSDIAVEWESNGQPENNYKTTPPVLDSDGSFFLVSRLTVDKSRWQEGNVFSCSVMHEALHNHYTQKSLSLSLGKGGGSEVQLLESGGGLVQPGGSLRLSCAASGFTFGNYDMAWVRQAPGKRPEWVSSIDTGGDITHYADSVKGRFTISRDNAKNTLYLQMNSLRPEDTAVYWCATDEEYALGPNEFDYYGQGTLVTVSS
B6: CIgG4F6A1(G4S)3 (Fc fusion)
chain 1: GPPCPPCPAPEFLGGPSVFLFPPKPKDTLMISRTPEVTCVVVDVSQEDPEVQFNWYVDGVEVHNAKTKPREEQFNSTYRVVSVLTVLHQDWLNGKEYKCKVSNKGLPSSIEKTISKAKGQPREPQVYTLPPCQEEMTKNQVSLWCLVKGFYPSDIAVEWESNGQPENNYKTTPPVLDSDGSFFLYSRLTVDKSRWQEGNVFSCSVMHEALHNHYTQKSLSLSLGKGGGGSGGGGSGGGGSDVQLQESGGGLVQAGGSLRLSCAASGLTFGSYDMGWYRQAPGKQRELVGRIRNDGITYYADSVKGRFTMSRDNAKNTVYLQMNSLKPEDTAVYYCAADGTGLGHYDYWGQGTQVTVS
chain 2: GPPCPPCPAPEFLGGPSVFLFPPKPKDTLMISRTPEVTCVVVDVSQEDPEVQFNWYVDGVEVHNAKTKPREEQFNSTYRVVSVLTVLHQDWLNGKEYKCKVSNKGLPSSIEKTISKAKGQPREPQVCTLPPSQEEMTKNQVSLSCAVKGFYPSDIAVEWESNGQPENNYKTTPPVLDSDGSFFLVSRLTVDKSRWQEGNVFSCSVMHEALHNHYTQKSLSLSLGKGGGGSGGGGSGGGGSEVQLLESGGGLVQPGGSLRLSCAASGFTFGNYDMAWVRQAPGKRPEWVSSIDTGGDITHYADSVKGRFTISRDNAKNTLYLQMNSLRPEDTAVYWCATDEEYALGPNEFDYYGQGTLVTVSS
B7: CIgG4F6A1(G4S)2 (Fc fusion)
chain 1: GPPCPPCPAPEFLGGPSVFLFPPKPKDTLMISRTPEVTCVVVDVSQEDPEVQFNWYVDGVEVHNAKTKPREEQFNSTYRVVSVLTVLHQDWLNGKEYKCKVSNKGLPSSIEKTISKAKGQPREPQVYTLPPCQEEMTKNQVSLWCLVKGFYPSDIAVEWESNGQPENNYKTTPPVLDSDGSFFLYSRLTVDKSRWQEGNVFSCSVMHEALHNHYTQKSLSLSLGKGGGGSGGGGSDVQLQESGGGLVQAGGSLRLSCAASGLTFGSYDMGWYRQAPGKQRELVGRIRNDGITYYADSVKGRFTMSRDNAKNTVYLQMNSLKPEDTAVYYCAADGTGLGHYDYWGQGTQVTVS
chain 2: GPPCPPCPAPEFLGGPSVFLFPPKPKDTLMISRTPEVTCVVVDVSQEDPEVQFNWYVDGVEVHNAKTKPREEQFNSTYRVVSVLTVLHQDWLNGKEYKCKVSNKGLPSSIEKTISKAKGQPREPQVCTLPPSQEEMTKNQVSLSCAVKGFYPSDIAVEWESNGQPENNYKTTPPVLDSDGSFFLVSRLTVDKSRWQEGNVFSCSVMHEALHNHYTQKSLSLSLGKGGGGSGGGGSEVQLLESGGGLVQPGGSLRLSCAASGFTFGNYDMAWVRQAPGKRPEWVSSIDTGGDITHYADSVKGRFTISRDNAKNTLYLQMNSLRPEDTAVYWCATDEEYALGPNEFDYYGQGTLVTVSS
B8: CIgG4B1A1(no linker) (Fc fusion)
chain 1: GPPCPPCPAPEFLGGPSVFLFPPKPKDTLMISRTPEVTCVVVDVSQEDPEVQFNWYVDGVEVHNAKTKPREEQFNSTYRVVSVLTVLHQDWLNGKEYKCKVSNKGLPSSIEKTISKAKGQPREPQVYTLPPCQEEMTKNQVSLWCLVKGFYPSDIAVEWESNGQPENNYKTTPPVLDSDGSFFLYSRLTVDKSRWQEGNVFSCSVMHEALHNHYTQKSLSLSLGKQVQLQESGGGLVQTGGSLRLSCAVHGRTFSNTGMGWFRQAPGNERQFVAIISPSGTSTYYADSVKGRFTISRDPAKNTVYLQMNSLKMDDTAVYYCAASYGSNWSTLRHQRRNEYDAWGQGTQVAVS
chain 2: GPPCPPCPAPEFLGGPSVFLFPPKPKDTLMISRTPEVTCVVVDVSQEDPEVQFNWYVDGVEVHNAKTKPREEQFNSTYRVVSVLTVLHQDWLNGKEYKCKVSNKGLPSSIEKTISKAKGQPREPQVCTLPPSQEEMTKNQVSLSCAVKGFYPSDIAVEWESNGQPENNYKTTPPVLDSDGSFFLVSRLTVDKSRWQEGNVFSCSVMHEALHNHYTQKSLSLSLGKEVQLLESGGGLVQPGGSLRLSCAASGFTFGNYDMAWVRQAPGKRPEWVSSIDTGGDITHYADSVKGRFTISRDNAKNTLYLQMNSLRPEDTAVYWCATDEEYALGPNEFDYYGQGTLVTVSS

Positions count from the first letter of the chain named. Numbers in names are those of the source.

For the experiment, the target named is T1, recombinant human IgE (human, UniProt P01854-1 1-428).
T1 construct: made in-house (ALK); preloaded on immobilised FcεRIα in the displacement ELISA
T1 sequence (P01854 other isoform, or with tags, fused parts or gaps): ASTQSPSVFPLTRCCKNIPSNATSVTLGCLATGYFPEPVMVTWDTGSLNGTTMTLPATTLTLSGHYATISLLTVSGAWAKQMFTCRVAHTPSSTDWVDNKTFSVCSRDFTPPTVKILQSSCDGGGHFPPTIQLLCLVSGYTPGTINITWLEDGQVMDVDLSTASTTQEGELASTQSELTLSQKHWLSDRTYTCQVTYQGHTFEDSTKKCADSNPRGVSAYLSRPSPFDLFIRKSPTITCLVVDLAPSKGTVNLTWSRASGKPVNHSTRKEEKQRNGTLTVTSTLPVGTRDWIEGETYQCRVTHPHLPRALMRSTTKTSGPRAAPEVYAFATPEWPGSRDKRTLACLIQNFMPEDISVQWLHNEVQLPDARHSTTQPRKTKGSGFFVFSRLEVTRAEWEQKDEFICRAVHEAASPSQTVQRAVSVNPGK
Description: IgE-FcεRIα displacement ELISA. An outline of the steps:
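Streptavidin-coated plates carried site-specifically biotinylated recombinant human FcεRIα, loaded with recombinant human IgE at 13 ng/ml. sdAbs in a pM–μM series were added for 1 h, and displaced IgE was washed off. Percent displacement was the signal reduction versus the no-sdAb control, giving EC50 and maximal effect.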
(In general: ELISA stands for enzyme-linked immunosorbent assay.)
On to B1, for which the Max effect came to 25%.
One may read the EC50 as the midpoint of the concentration-response curve. B2: the EC50 was 2.9 nM and the Max effect was > 95%.
Take B3: the EC50 is 3.4 nM and the Max effect was > 95%.
With B4, the concentration for a half-maximal effect (EC50) turned out to be 9.1 nM and the Max effect was > 95%.
Taken in the same sequence, the figures for B5 were 3.1 nM and > 95%.
Take B6: the EC50 was determined as 3.3 nM and the Max effect worked out at 90%.
Consider B7, for which the EC50 worked out at 8 nM and the Max effect is 75%.
Taken in the same sequence, the figures for B8 were 14 nM and 90%.
